Source: patent US20180185504A1

What was measured:
[1] = biological target: mouse PRLR construct with an HA tag on HEK293/mPRLR cells (mouse) (UniProt Q08501); assay: FACS on HEK293/mPRLR cells
[2] = biological target: human prolactin (PRL) (human) (UniProt P01236); assay: ELISA: dimeric PRLR (3.38 pM to 200 nM) on plate-coated human PRL (1 µg/mL), HRP anti-Fc-gamma detection
human prolactin (PRL) (human), sequence (P01236 29-227 limits assumed): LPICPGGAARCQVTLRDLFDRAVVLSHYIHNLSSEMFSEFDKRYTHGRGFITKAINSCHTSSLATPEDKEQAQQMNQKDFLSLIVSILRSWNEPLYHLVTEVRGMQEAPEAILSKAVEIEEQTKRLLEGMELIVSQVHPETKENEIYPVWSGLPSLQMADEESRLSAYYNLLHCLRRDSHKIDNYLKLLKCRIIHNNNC

mouse PRLR construct with an HA tag on HEK293/mPRLR cells (mouse), sequence (Q08501 20-608): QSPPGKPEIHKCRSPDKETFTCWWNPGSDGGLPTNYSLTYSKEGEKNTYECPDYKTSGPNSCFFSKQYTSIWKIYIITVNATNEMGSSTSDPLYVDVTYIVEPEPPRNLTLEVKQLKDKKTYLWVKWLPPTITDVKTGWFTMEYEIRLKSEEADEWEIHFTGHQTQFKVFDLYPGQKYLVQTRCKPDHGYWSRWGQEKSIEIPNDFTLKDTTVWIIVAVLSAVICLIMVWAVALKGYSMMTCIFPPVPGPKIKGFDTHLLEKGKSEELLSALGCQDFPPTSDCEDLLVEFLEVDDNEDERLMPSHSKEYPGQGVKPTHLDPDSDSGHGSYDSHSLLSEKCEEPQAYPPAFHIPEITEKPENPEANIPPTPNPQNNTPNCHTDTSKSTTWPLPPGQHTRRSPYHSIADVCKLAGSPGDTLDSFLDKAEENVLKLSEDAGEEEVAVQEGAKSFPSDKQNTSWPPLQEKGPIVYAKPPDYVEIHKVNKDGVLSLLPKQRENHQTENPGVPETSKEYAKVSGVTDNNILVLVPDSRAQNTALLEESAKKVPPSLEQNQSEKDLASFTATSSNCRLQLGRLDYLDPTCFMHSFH

B1: H1H6801P (antibody, human IgG1, V domains shown)
VH: QVQLQQSGPGLVKPSQTLSLTCVISGDSVSSNTAWNWVRQSPSRGLEWLGRTYYRSKWYNDYAVSVKSRITINPDTSKNQFSLLMNSVTPEDTAVYYCARVVRGLNYFDYWGQGTLVTVSS
VL: DIVMTQSPDSLAVSLGERATINCKSSQSVLYNSNNKNYLAWYQQKPGQPPKLLIYWSSSRESGVPDRFSGSGSGTDFTLTISGLQAEDVAIYYCQQYSTIPYTFGQGTKLEIK
- FACS Cell Binding (Fold Above Background) [1]: 56 fold

B2: dimeric form of human PRLR (Example 12 ELISA) (Fc fusion, part only; not given: Dimerising Fc part, part only)
chain, part: QLPPGKPEIFKCRSPNKETFTCWWRPGTDGGLPTNYSLTYHREGETLMHECPDYITGGPNSCHFGKQYTSMWRTYIMMVNATNQMGSSFSDELYVDVTYIVQPDPPLELAVEVKQPEDRKPYLWIKWSPPTLIDLKTGWFTLLYEIRLKPEKAAEWEIHFAGQQTEFKILSLHPGQKYLVQVRCKPDHGYWSAWSPATFIQIPSDFTMND
- EC50 [2]: 4.9 nM
